This is an account of results in patent US20030166196A1 (published 2003).

The target of test [1] is T1, human CD5 cell differentiation marker (human, UniProt P06127 25-495).
T1 construct: whole, on cells; also called CD5 antigen; human T cell determinant CD5
T1 sequence: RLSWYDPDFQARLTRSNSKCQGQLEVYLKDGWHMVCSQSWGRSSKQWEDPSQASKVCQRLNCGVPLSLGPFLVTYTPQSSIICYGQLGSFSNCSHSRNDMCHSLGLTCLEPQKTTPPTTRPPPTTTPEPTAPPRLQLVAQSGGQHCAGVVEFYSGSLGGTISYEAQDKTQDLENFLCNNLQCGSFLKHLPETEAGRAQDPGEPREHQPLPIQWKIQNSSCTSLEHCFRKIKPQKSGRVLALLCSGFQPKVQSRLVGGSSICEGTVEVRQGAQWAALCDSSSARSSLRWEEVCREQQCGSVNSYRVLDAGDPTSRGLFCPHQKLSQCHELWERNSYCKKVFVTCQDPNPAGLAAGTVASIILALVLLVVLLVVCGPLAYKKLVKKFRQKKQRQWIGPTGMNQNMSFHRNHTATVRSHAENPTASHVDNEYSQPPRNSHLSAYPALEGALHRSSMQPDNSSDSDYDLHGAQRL
The experiment in a line: competition with 125I-cH65 IgG on Molt-4M cells.

For test [2], the target named is T1, human CD5 cell differentiation marker. The experiment in a line: cell-based or functional assay.

B1: chimeric H65 IgG (antibody, V domains shown)
VL: […]
VH: QIQLVQSGPELKKPGETVKISCKASGYTFTNYGMNWVKQAPGKGLRWMGWINTHTGEPTYADDFKGRFAFSLETSASTAYLQINNLKNEDTATYFCTRRGYDWYFDVWGAGTTVTVSS
notes: also called 125I-cH65 IgG
For B1, the binding result in test [1] was “binds”.

B2: he3Fab-rGelA50(C44) (other)
light: DIQMTQSPSSLSASVGDRVTITCRASQDINSYLSWFQQKPGKAPKTLIYRANRLESGVPSRFSGSGSGTDYTLTISSLQYEDFGIYYCQQYDESPWTFGGGTKLEIK
heavy: EIQLVQSGGGLVKPGGSVRISCAASGYTFTNYGMNWVRQAPGKGLEWMGWINTHTGEPTYADSFKGRFTFSLDDSKNTAYLQINSLRAEDTAVYFCTRRGYDWYFDVWGQGTTVTVSS
chain: GLDTVSFSTKGATYITYVNFLNELRVKLKPEGNSHGIPLLRKKCDDPGKAFVLVALSNDNGQLAEIAIDVTSVYVVGYQVRNRSYFFKDAPDAAYEGLFKNTIKTRLHFGGSYPSLEGEKAYRETTDLGIEPLRIGIKKLDENAIDNYKPTEIASSLLVVIQMVSEAARFTFIENQIRNNFQQRIRPANNTISLENKWGKLSFQIRTSGANGMFSEAVELERANGKKYYVTAVDQVKPKIALLKFVDKDPK
Consider B2, for which, in test [2], the “IC50 (pMT), whole cell cytotoxicity, CEM Cells” value turned out to be 173 pMT and the “IC50 (pMT), whole cell cytotoxicity, HSB2 Cells” value came out at 165 pMT.

B3: he3 IgG (human-engineered H65 antibody, moderate-risk changes, ATCC HB 11206) (antibody, V domains shown)
VH: EIQLVQSGGGLVKPGGSVRISCAASGYTFTNYGMNWVRQAPGKGLEWMGWINTHTGEPTYADSFKGRFTFSLDDSKNTAYLQINSLRAEDTAVYFCTRRGYDWYFDVWGQGTTVTVSS
VL: DIQMTQSPSSLSASVGDRVTITCRASQDINSYLSWFQQKPGKAPKTLIYRANRLESGVPSRFSGSGSGTDYTLTISSLQYEDFGIYYCQQYDESPWTFGGGTKLEIK
notes: also called he3 antibody; humanized antibody
As for B3, the binding result in test [1] is “binds”.
